Measurements reported in US20100278837A1, “Compositions And Methods For Reducing Cancer And Inflammation” (The Regents of the University of California, priority 2009, published 2010).

B1: mouseVCAM-1/humanFc fusion protein (R&D Systems) (Fc fusion, UniProt P29533 25-698, looked up)
chain: FKIEISPEYKTIAQIGDSMALTCSTTGCESPLFSWRTQIDSPLNAKVRTEGSKSVLTMEPVSFENEHSYLCTATCGSGKLERSIHVDIYSFPKDPEIQFSGPLEVGKPVTVKCLAPDIYPVYRLEIDLFKGDQLMNRQEFSSEEMTKSLETKSLEVTFTPVIEDIGKALVCRAKLHIDQIDSTLKERETVKELQVYISPRNTTISVHPSTRLQEGGAVTMTCSSEGLPAPEIFWGRKLDNEVLQLLSGNATLTLIAMRMEDSGVYVCEGVNLIGRDKAEVELVVQEKPFIVDISPGSQVAAQVGDSVVLTCAAIGCDSPSFSWRTQTDSPLNGVVRNEGAKSTLVLSSVGFEDEHSYLCAVTCLQRTLEKRTQVEVYSFPEDPVIKMSGPLVHGRPVTVNCTVPNVYPFDHLEIELLKGETTLMKKYFLEEMGIKSLETKILETTFIPTIEDTGKSLVCLARLHSGEMESEPKQRQSVQPLYVNVAPKETTIWVSPSPILEEGSPVNLTCSSDGIPAPKILWSRQLNNGELQPLSENTTLTFMSTKRDDSGIYVCEGINEAGISRKSVELIIQVSPKDIQLTVFPSKSVKEGDTVIISCTCGNVPETWIILKKKAKTGDMVLKSVDGSYTIRQAQLQDAGIYECESKTEVGSQLRSLTLDVKGKEHNKDYFSPE
notes: Bought reagent; Detected with donkey anti-human-FC-PE; also called VCAM-1/Fc; VCAM-1/FC; not shown: human Fc
B2: murine integrin α4Y991A β1 of CD11b+ myeloid cells from α4Y991A knockin mice (receptor, mouse)
chain 1: YNLDPENALLYQGPSGTLFGYSVVLHSHGSKRWLIVGAPTASWLSNASVVNPGAIYRCGIRKNPNQTCEQLQSGSPSGEPCGKTCLEERDNQWLGVTLSRQPGENGSIVTCGHRWKNIFYMKSDNKLPTGICYVMPSDLRTELSKRMAPCYKDYTRKFGENFASCQAGISSFYTQDLIVMGAPGSSYWTGTVFVYNITTNQYKAFVDRQNQVKFGSYLGYSVGAGHFRSPHTTEVVGGAPQHEQIGKAYIFSIDENELNIVYEMKGKKLGSYFGASVCAVDLNADGFSDLLVGAPMQSTIREEGRVFVYINSGMGAVMVEMERVLVGSDKYAARFGESIANLGDIDNDGFEDIAIGAPQEDDLRGAVYIYNGRVDGISSTYSQRIEGQQISKSLRMFGQSISGQIDADNNGYVDVAVGAFQSDSAVLLRTRPVVIVEASLSHPESVNRTKFDCTENGLPSVCMHLTLCFSYKGKEVPGYIVLFYNVSLDVHRKAESPSRFYFFSNGTSDVITGSIRVSSSGEKCRTHQAFMRKDVRDILTPIHVEATYHLGHHVITKRNTEEFPPLQPILQQKKEKDVIRKMINFARFCAYENCSADLQVSAKVGFLKPYENKTYLAVGSMKTIMLNVSLFNAGDDAYETTLNVQLPTGLYFIKILDLEEKQINCEVTESSGIVKLACSLGYIYVDRLSRIDISFLLDVSSLSRAHEDLSISVHASCENEGELDQVRDNRVTLTIPLRYEVMLTVHGLVNPTSFVYGSSEENEPETCMAEKLNLTFHVINTGISMAPNVSVKIMVPNSFLPQDDKLFNVLDVQTTTGQCHFKHYGRECTFAQQKGIAGTLTDIVKFLSKTDKRLLYCMKADQHCLDFLCNFGKMESGKEASVHIQLEGRPSILEMDETSSLKFEIKATAFPEPHPKVIELNKDENVAHVFLEGLHHQRPKRHFTIIIITISLLLGLIVLLLISCVMWKAGFFKRQYKSILQEENRRDSWSAVNSKSNDD
chain 2: QTDKNRCLKANAKSCGECIQAGPNCGWCTNTTFLQEGMPTSARCDDLEALKKKGCQPSDIENPRGSQTIKKNKNVTNRSKGMAEKLRPEDITQIQPQQLLLKLRSGEPQKFTLKFKRAEDYPIDLYYLMDLSYSMKDDLENVKSLGTDLMNEMRRITSDFRIGFGSFVEKTVMPYISTTPAKLRNPCTSEQNCTSPFSYKNVLSLTDRGEFFNELVGQQRISGNLDSPEGGFDAIMQVAVCGSLIGWRNVTRLLVFSTDAGFHFAGDGKLGGIVLPNDGQCHLENNVYTMSHYYDYPSIAHLVQKLSENNIQTIFAVTEEFQPVYKELKNLIPKSAVGTLSGNSSNVIQLIIDAYNSLSSEVILENSKLPDGVTINYKSYCKNGVNGTGENGRKCSNISIGDEVQFEISITANKCPNKESETIKIKPLGFTEEVEVVLQFICKCNCQSHGIPASPKCHEGNGTFECGACRCNEGRVGRHCECSTDEVNSEDMDAYCRKENSSEICSNNGECVCGQCVCRKRDNTNEIYSGKFCECDNFNCDRSNGLICGGNGVCRCRVCECYPNYTGSACDCSLDTGPCLASNGQICNGRGICECGACKCTDPKFQGPTCETCQTCLGVCAEHKECVQCRAFNKGEKKDTCAQECSHFNLTKVESREKLPQPVQVDPVTHCKEKDIDDCWFYFTYSVNGNNEAIVHVVETPDCPTGPDIIPIVAGVVAGIVLIGLALLLIWKLLMIIHDRREFAKFEKEKMNAKWDTGENPIYKSAVTTVVNPKYEGK
notes: whole, on cells; It may be mature-chain numbering and may not match the precursor entry; also called α4YA; YA

Assays:
[1] = tested on: integrin α4; assay: Integrin α4 clustering in CD11b+ cells; type: cell-based; settings: SDF-1α or IL-1β induced
Procedure: Activation of human CD29 (integrin β1 chain) in cytokine stimulated human CD11b+ cells was quantified by flow cytometry using HUTS-21 antibodies (BD Bioscience). Total β1 integrin levels were assessed using P4C10 antibodies (Chemicon). 2.5×10^6 freshly isolated human myeloid cells/ml in culture medium containing 5% FBS and 0.5% NaN3 were incubated in 10 μg/ml normal human immunoglobulin (12000C, Caltag) for 45 min on ice, then in 2 μg/ml SDF-1α, IL-1β, IL-6 or 1 mM Mn2+ plus 2.5 μg HUTS21, P4C10, or IgG2 control for 10 min at 37° C. followed by Alexa 488 goat-anti mouse antibodies for 20 min on ice. Expression levels of murine integrin α4 on bone marrow derived cells were determined by flow cytometry for PE-conjugated R1/2 (rat anti-CD49d antibody, eBioscience). To induce integrin α4 activation on human myeloid cells or murine WT and α4Y991A myeloid, purified CD11b+ cells were incubated with polystyrene microspheres (9.0 μm diameter, Bangs Laboratories) coated with TCM, 2 μg/ml SDF-1α or IL-1β overnight at 4° C. cells as previously described by Grabovsky et al., 2000. […] Samples were analyzed by Nikon CS1 spectral confocal on a Nikon TE2000E inverted microscopy. Images were captured using EZ-C13.00 imaging software and analyzed using Metamorph software.

[2] = tested on: CD11b+ cells adhesion to endothelium; assay: Adhesion of CD11b+ cells to endothelium (Example 1 adhesion assay); type: cell-based, murine; settings: SDF-1α, TCM or IL-1β (and other chemoattractant) induced
Procedure: TCM was prepared from serum-free media cultured on LLC cells for 18 h and filtered through 0.22 μm filters. 10^5 calcein-AM labelled human or murine CD11b+ cells in TCM or DMEM containing 200 ng/ml SDF-1α, IL-1β, IL-6, IL-8 or VEGF-A (R&D Systems) were incubated on HUVEC monolayers or on plastic plates coated with 5 μg/ml recombinant soluble VCAM-1 (R&D Systems). Adherent cells were quantified using a fluorescence activated plate reader (GeniosPro, TECAN). In some assays, cells were also incubated in 25 μg/ml anti-integrin α4β1 (PS2 for murine cells and HP2/1 for human cells, gifts from Biogen-Idec) and isotype control antibodies (IgG2bk for murine cells and IgG1 for human cells). In some studies, cells were incubated in 10 μM pan PI3K inhibitors […] or TG020, in PI3kinase α inhibitor PI3K75, PI3kinase γ/δ inhibitor TG115 and an inert control.

[3] = biological target: B2; assay: flow cytometry of VCAM-1/Fc on CD11b+ cells (FIG. 27e)
Procedure: (§1) 5×10⁵ CD11b+ cells isolated from WT, α4Y991A, or PI3-kinase γ−/− mice (naïve or tumour-bearing) were incubated with 200 ng/ml IL-1β, SDF-1α, IL-6, TNFα, VEGF-A or medium together with 1 mg/ml mouseVCAM-1/humanFc fusion protein (R&D Systems) for 3 min. Cells were washed twice and incubated with donkey anti-human-FC-PE antibody (Jackson Immunoresearch) then analysed by FACs Calibur. Mean fluorescence intensity of treated cells was compared to that of unstimulated cells (basal). In other studies, cells from WT mice were untreated or were treated with 1 μM PI3-kinase α, β, or γ inhibitors for 30 min at 37° C. In some experiments GFP/RapV12 or GFP/RasV12 transfected CD11b+ cells were used. In this case, increased mean fluorescence intensity was measured for only GFP-positive cells.

[4] = biological target: T1, murine integrin α4β1 (wildtype) of CD11b+ myeloid cells (mouse, UniProt Q00651 41-1039; P09055 21-798); assay: flow cytometry, VCAM-1/Fc on murine CD11b+ cells (FIG. 27e)
T1 construct: whole, on cells; In the co-immunoprecipitations it was precipitated from CHAPS lysates of bone marrow cells with PS/2; also called VLA-4; VLA4
Procedure: as §1

[5] = biological target: T2, talin (murine, endogenous in bone marrow derived myeloid cells) (mouse, UniProt P26039 1-2541); assay: co-immunoprecipitation with PS/2, immunoblot (FIG. 3d)
T2 construct: Detected by immunoblot with anti-talin clone TD77
T2 sequence (P26039 whole entry): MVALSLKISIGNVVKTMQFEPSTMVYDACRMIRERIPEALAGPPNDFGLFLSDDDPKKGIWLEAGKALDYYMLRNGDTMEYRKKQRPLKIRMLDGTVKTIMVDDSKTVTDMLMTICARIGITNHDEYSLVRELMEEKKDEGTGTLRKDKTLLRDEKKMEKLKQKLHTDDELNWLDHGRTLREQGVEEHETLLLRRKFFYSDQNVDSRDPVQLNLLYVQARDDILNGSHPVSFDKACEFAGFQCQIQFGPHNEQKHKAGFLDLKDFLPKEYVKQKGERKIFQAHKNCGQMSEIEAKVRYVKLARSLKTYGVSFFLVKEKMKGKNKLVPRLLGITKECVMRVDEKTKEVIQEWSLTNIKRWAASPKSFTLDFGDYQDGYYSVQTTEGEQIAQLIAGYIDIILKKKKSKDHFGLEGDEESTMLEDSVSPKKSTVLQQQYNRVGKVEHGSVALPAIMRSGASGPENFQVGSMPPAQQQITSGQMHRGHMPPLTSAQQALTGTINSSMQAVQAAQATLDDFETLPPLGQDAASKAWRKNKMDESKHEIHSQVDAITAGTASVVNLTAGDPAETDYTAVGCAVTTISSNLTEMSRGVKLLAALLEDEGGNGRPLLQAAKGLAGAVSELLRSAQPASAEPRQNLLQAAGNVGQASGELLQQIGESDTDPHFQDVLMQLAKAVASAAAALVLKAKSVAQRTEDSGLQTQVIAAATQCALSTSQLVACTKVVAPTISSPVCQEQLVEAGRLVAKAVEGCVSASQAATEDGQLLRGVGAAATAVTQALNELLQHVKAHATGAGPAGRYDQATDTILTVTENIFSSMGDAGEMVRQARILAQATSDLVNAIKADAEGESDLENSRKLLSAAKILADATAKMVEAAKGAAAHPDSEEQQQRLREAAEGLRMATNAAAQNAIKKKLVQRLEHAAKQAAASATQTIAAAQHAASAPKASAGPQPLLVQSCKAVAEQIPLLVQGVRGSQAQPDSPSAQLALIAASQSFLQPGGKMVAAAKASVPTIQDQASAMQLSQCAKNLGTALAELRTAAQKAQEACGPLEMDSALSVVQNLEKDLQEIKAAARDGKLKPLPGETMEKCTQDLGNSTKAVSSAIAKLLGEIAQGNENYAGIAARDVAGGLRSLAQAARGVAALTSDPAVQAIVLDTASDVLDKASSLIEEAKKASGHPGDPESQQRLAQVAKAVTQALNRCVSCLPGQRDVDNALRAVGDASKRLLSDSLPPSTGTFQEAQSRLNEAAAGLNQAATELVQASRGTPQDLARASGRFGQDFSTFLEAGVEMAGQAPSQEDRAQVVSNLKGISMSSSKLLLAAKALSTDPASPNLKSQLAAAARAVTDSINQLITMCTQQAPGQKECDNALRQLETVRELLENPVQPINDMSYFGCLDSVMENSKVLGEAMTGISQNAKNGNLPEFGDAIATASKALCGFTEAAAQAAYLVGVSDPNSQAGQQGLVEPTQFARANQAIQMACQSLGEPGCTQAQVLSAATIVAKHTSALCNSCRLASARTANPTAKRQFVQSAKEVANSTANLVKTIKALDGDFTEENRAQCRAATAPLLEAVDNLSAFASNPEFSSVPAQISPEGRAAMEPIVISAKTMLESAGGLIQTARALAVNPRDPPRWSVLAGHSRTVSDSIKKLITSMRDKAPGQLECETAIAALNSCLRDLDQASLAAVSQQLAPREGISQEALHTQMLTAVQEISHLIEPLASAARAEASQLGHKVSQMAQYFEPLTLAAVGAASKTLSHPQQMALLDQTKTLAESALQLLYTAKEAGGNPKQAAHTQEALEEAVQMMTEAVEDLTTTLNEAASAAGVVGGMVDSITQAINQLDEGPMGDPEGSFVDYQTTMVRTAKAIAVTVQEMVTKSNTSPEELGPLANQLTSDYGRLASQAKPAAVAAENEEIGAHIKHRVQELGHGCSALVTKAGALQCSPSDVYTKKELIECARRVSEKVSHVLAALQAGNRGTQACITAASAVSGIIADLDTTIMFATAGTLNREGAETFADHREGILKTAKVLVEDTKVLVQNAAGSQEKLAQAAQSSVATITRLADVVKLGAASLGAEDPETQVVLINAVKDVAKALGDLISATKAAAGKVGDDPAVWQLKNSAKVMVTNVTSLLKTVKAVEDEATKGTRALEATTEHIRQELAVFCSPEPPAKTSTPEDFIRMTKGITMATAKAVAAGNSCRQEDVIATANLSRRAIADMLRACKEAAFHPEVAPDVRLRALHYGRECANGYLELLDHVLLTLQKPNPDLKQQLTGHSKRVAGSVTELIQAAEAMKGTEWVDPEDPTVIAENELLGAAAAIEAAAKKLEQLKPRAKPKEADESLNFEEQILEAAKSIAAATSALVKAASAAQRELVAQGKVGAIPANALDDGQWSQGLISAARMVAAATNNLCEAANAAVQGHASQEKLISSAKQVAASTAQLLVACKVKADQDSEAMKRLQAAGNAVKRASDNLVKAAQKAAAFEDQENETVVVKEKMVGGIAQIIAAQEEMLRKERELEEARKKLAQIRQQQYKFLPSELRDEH
Procedure: BM monocytic cells from WT or α4Y991A mice were isolated as described above and treated with either DMEM or TCM for 30 min at 37° C. Cells were rinsed with cold PBS and lysed in Tris-buffered saline containing 1% CHAPS, 20 mM β-glycerophosphate, 1 mM Na₃VO₄, 5 mM NaF, 100 ng/ml microcystin-LR, and protease inhibitor cocktail. Clarified cell lysates were immunoprecipitated as follows: 1 mg total protein was precleared with 10 μl protein G-conjugated Dynabeads (Invitrogen) for 1 hr with rotation. Cleared lysates were incubated with 5 μg of rat anti-α4β1 (PS/2) antibody overnight, followed by adding 25 μl of protein G-conjugated Dynabeads for 3 h with rotation. Beads were washed three times with 1 ml cold PBS containing protease inhibitor cocktail. Protein precipitates were electrophoresed on 10% SDS-PAGE gels and immunoblotted with anti-integrin α4 (C-20, Santa Cruz Biotechnology), anti-talin (Clone TD77, Chemicon) or anti-paxillin (H-114, Santa Cruz Biotechnology) antibodies. Immune complexes were visualized using an enhanced chemiluminescence detection kit (Pierce).
BM cells (comprised of 80% CD11b+Gr1+ cells) from WT or α4Y991A mice were isolated as described above and treated with either DMEM or TCM for 30 min at 37° C. […]

## pertussis toxin
[1]
  integrin α4 clustering: blocked SDF-1α-induced integrin clustering
[2]
  CD11b+ cell adhesion to endothelium: inhibited SDF-1α, and TCM-induced but not IL-1β induced adhesion

## B1
[3]
  binding result: no binding
[4]
  binding result: binds

## B2
[5]
  binding result: no binding
